The values below come from the RNAGym collection of RNA variant scans (doi:10.7554/elife.80360).

To fix the notation:
B1: Twister Ribozyme (parent)
chain: AACACUGCCAAUGCCGGUCCCAAGCCCGGAUAAAAGUGGAGGGGGCGG

Variants of B1 are the subject of this data set. Nature of the data set: self-cleavage, relative activity (ratio to wild type); higher = more cleavage; co-transcriptional.
On to U37A G39C, for which the self-cleavage amounted to 0.121.

For G13C U31C, the self-cleavage stood at 0.552.

Consider A34U G36A, for which the self-cleavage was 0.157.

U31C U37G: the self-cleavage was 1.

As to A1C A11G, the self-cleavage turned out to be 0.218.

Regarding G7U G43C, the self-cleavage came out at 0.0634.

Turning to A11U G38U, the self-cleavage came to 0.875.

As for U12C C15G, the self-cleavage was 0.0964.

As for C21G C46A, the self-cleavage stood at 0.115.

For the variant G16A G41U, the self-cleavage was 0.396.

For U18A A23U, the self-cleavage was 0.753.

For C3A G13C, the self-cleavage worked out at 0.0651.

Take A1C U37C: the self-cleavage is 0.174.

With A10C A32U, the self-cleavage stood at 0.892.

Take U37G G38U: the self-cleavage is 0.127.

With A34G G36A, the self-cleavage came out at 0.164.

For the variant G13C A35U, the self-cleavage came to 0.629.

As to G28U U31A, the self-cleavage stood at 0.881.

For A10U G17C, the self-cleavage stood at 0.11.

In the case of C20A G45C, the self-cleavage is 0.161.

Consider A1G G42A, for which the self-cleavage came to 0.215.

For A23C G28U, the self-cleavage turned out to be 0.161.

As for C15U C20U, the self-cleavage turned out to be 0.845.

For G43U, the self-cleavage was determined as 0.537.

As to G16U G28A, the self-cleavage amounted to 0.641.

Take U6C G38U: the self-cleavage was 0.282.

Take G29U A33U: the self-cleavage was determined as 0.911.

In the case of A11G A40C, the self-cleavage was found to be 0.214.

For A22C G42A, the self-cleavage stood at 0.215.

For the variant A22C G42C, the self-cleavage was found to be 0.237.

As to A22G G24C, the self-cleavage came to 0.0998.

Turning to A30G A35U, the self-cleavage turned out to be 0.782.

Take G36C G48A: the self-cleavage was determined as 0.422.

U6C G42U: the self-cleavage stood at 0.107.

For the variant C8A A32C, the self-cleavage was determined as 0.42.

Take C8G C14A: the self-cleavage is 0.495.

Consider U12G C27A, for which the self-cleavage was 0.373.

As for C25A A34U, the self-cleavage was determined as 0.0738.

For the variant C19A G44C, the self-cleavage amounted to 0.746.

Take U12C G17A: the self-cleavage amounted to 0.532.

As for A22U G47C, the self-cleavage was determined as 0.216.

For C3U U18G, the self-cleavage worked out at 0.0621.

Turning to C3U U18C, the self-cleavage was 0.215.

Take A30C A35C: the self-cleavage was 0.808.

In the case of C21A A32U, the self-cleavage was found to be 0.152.

Consider C5A C26A, for which the self-cleavage stood at 0.1.

As for A2U A23U, the self-cleavage turned out to be 0.106.

C9U C15A: the self-cleavage was 0.22.

Consider C5G C14U, for which the self-cleavage worked out at 0.793.

A11G A35C: the self-cleavage was found to be 0.903.

As for U12C G28A, the self-cleavage was 0.829.

U37A G48U: the self-cleavage came to 0.811.

For A33U C46U, the self-cleavage worked out at 0.917.

As to C5A A40G, the self-cleavage worked out at 0.0921.

For the variant A10C A23U, the self-cleavage was 0.664.

Turning to U18C A34G, the self-cleavage was found to be 0.142.

In the case of C27U A35U, the self-cleavage is 0.775.

C14U A23G: the self-cleavage worked out at 0.666.

With A33C A40U, the self-cleavage was determined as 0.1.

In the case of C21A G48C, the self-cleavage was determined as 0.171.

With C25U G38A, the self-cleavage stood at 0.581.

Consider C8A U31G, for which the self-cleavage amounted to 0.57.

In the case of A23U U31C, the self-cleavage is 0.682.

For the variant A30C G48U, the self-cleavage is 0.759.

Turning to U31G G43A, the self-cleavage stood at 0.324.

U12C A35C: the self-cleavage came to 1.08.

Turning to A4C G36A, the self-cleavage was determined as 0.103.

Consider C3G G48C, for which the self-cleavage stood at 0.65.

With G7C A32G, the self-cleavage came out at 0.105.

Turning to G39U G44A, the self-cleavage amounted to 0.15.

For the variant C8G A22U, the self-cleavage worked out at 0.157.

In the case of U6G G36C, the self-cleavage turned out to be 0.0766.

As for U12C G16A, the self-cleavage came to 0.938.

Turning to U12C C27A, the self-cleavage was 0.577.

Consider C15U G28A, for which the self-cleavage was determined as 1.14.

As for A10G G29U, the self-cleavage came out at 1.12.

Regarding U18A C26A, the self-cleavage was 0.313.

For the variant A4U C27G, the self-cleavage worked out at 0.115.

In the case of C15U G48A, the self-cleavage was determined as 0.765.

Regarding A35G G39U, the self-cleavage was 0.18.

As for A2U A34C, the self-cleavage was 0.15.

With G13U U18A, the self-cleavage came out at 0.0935.

As for C26U G29A, the self-cleavage stood at 0.212.

With G47U, the self-cleavage was determined as 0.965.

In the case of C19U A32G, the self-cleavage was 0.855.

For C5A U6C, the self-cleavage was 0.112.

C15U C26A: the self-cleavage turned out to be 0.126.

With U37A C46A, the self-cleavage was found to be 0.844.

Turning to A2U C15U, the self-cleavage stood at 0.531.

Take A34G G42C: the self-cleavage is 0.185.

In the case of G16U U37C, the self-cleavage was 0.261.

In the case of A2C G29A, the self-cleavage came out at 0.0998.

For the variant G7U G29C, the self-cleavage stood at 0.0397.

As to C8A C25U, the self-cleavage was 0.125.

Consider A10U A23G, for which the self-cleavage was found to be 0.461.

With G42A G45C, the self-cleavage was determined as 0.187.

On to A23G A32G, for which the self-cleavage was 0.402.

With U12G G44A, the self-cleavage was 0.784.

A10C A33C: the self-cleavage came out at 1.14.

With U6A U18G, the self-cleavage was determined as 0.0743.

As for G13A U37G, the self-cleavage worked out at 0.233.

In the case of U18G G29U, the self-cleavage came to 0.0942.

Turning to C19G G36U, the self-cleavage was 0.099.

As for C3U A32G, the self-cleavage is 0.369.

G38C G39U: the self-cleavage amounted to 0.164.

C19U G47A: the self-cleavage turned out to be 0.763.

Turning to G7U C20A, the self-cleavage came out at 0.0332.

Consider C19A G48C, for which the self-cleavage amounted to 0.149.

Turning to U12C G47U, the self-cleavage came out at 0.944.

Take U12C G47C: the self-cleavage was 0.497.

In the case of G24U A35U, the self-cleavage turned out to be 0.175.

Regarding A34C A40G, the self-cleavage is 0.145.

For A2U G13A, the self-cleavage was 0.153.

Regarding G28A, the self-cleavage amounted to 0.897.

With A1U G17A, the self-cleavage is 0.0711.

Regarding C8G A40C, the self-cleavage is 0.157.

For C20U G41C, the self-cleavage is 0.133.

As to A10C G28C, the self-cleavage amounted to 0.822.

As to G38A G41A, the self-cleavage came out at 0.28.

On to A40U C46U, for which the self-cleavage came to 0.163.

For the variant U12G C21G, the self-cleavage was 0.0698.

With A11C C25U, the self-cleavage was determined as 0.733.

As for G36U U37A, the self-cleavage turned out to be 0.177.

For C26U G45A, the self-cleavage is 0.232.

For the variant A10U U18C, the self-cleavage stood at 0.506.

Turning to G39C G48U, the self-cleavage is 0.198.

On to C14A G36U, for which the self-cleavage came to 0.221.

For C14A G36C, the self-cleavage stood at 0.351.

On to C5A U12A, for which the self-cleavage was determined as 0.764.

For C5G U12A, the self-cleavage came to 0.821.

Consider U18A A22G, for which the self-cleavage is 0.0469.

For A2G G29U, the self-cleavage is 0.344.

Consider A11U G36A, for which the self-cleavage is 0.559.

As for G17U U37A, the self-cleavage stood at 0.092.

As for G7A A22C, the self-cleavage amounted to 0.519.

C8G G42A: the self-cleavage amounted to 0.131.

In the case of C8G G42C, the self-cleavage is 0.221.

As to G13A A22G, the self-cleavage was 0.107.

Turning to G28U G39C, the self-cleavage amounted to 0.15.

C8G A32G: the self-cleavage stood at 0.275.

With C8G A32C, the self-cleavage came to 0.323.

Take A2C G38C: the self-cleavage was found to be 0.0461.

In the case of C15U A30G, the self-cleavage was 0.759.

Regarding C15A U31A, the self-cleavage was 0.706.

Regarding C3U U31C, the self-cleavage amounted to 0.391.

As to C21G A32U, the self-cleavage was determined as 0.196.

Regarding C26A A33U, the self-cleavage was 0.534.

On to A35U G44C, for which the self-cleavage came out at 0.974.

With G28A G42C, the self-cleavage amounted to 0.272.

For G7A C27A, the self-cleavage worked out at 0.112.

For A1G G39A, the self-cleavage came out at 0.206.

Take U31C G47C: the self-cleavage amounted to 0.745.

A10U C19U: the self-cleavage came to 0.92.

For C14G G42U, the self-cleavage was determined as 0.0931.

In the case of C8U G36U, the self-cleavage came out at 0.109.

As to C20A A40U, the self-cleavage came out at 0.106.

In the case of C20A A40G, the self-cleavage is 0.0838.

Take C21G A30C: the self-cleavage amounted to 0.0405.

With A22U G48U, the self-cleavage was 0.911.

Consider A22U G48C, for which the self-cleavage is 0.954.

Turning to A34U C46G, the self-cleavage stood at 0.839.

For C9G C25G, the self-cleavage was determined as 0.0708.

Consider C5A C15A, for which the self-cleavage is 0.214.

For the variant C14U A32C, the self-cleavage amounted to 1.03.

As to G29C A35U, the self-cleavage was found to be 0.885.

For C8U G24A, the self-cleavage came out at 0.772.

On to C21A A33G, for which the self-cleavage turned out to be 0.0711.
